B1: TPR t1 (parent)
chain: GACCAAUCUGCCCUCAGAGCUCGAGAACAUCUUCGGAUGCAGAGGAGGCAGGCUUCGGUGGCGCGAUAGCGCCAACGUCCUCAACCUCCAAUGCAUCCCACCACAUGAUGAUGCCUGAAGAGCCUUGGUUUUUUG

Variants of: B1
Experiment: polymerase ribozyme fitness, log enrichment relative to wild type (log ratio); higher = more active; in vitro selection for triplet polymerase activity
In short: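 Only genotypes with ≥10 input reads and ≥1 read per output were kept after Illumina sequencing of input and output libraries. These libraries were PCR-built, transcribed mutants of each subunit of a heterodimeric triplet polymerase ribozyme, each put through one triplicate in vitro selection round with frozen incubation at −7 °C, gel excision of extended constructs, streptavidin-bead capture and RT-PCR. Fitness is a logarithmic ratio of genotype enrichment to wild-type enrichment, from inverse-variance-weighted replicate averages, with the logarithm in base 2.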

Q: Which “polymerase ribozyme fitness (log ratio)” value does the source give for GACCAAUCUGCCCUCAGAGCUCGAGAACAUCUUCGGAUGCAGAGGAGGCAGGCUUCGGUGGCGUGAUAGCGCCAACGUCCUCAACCUACAAUGCAUCCCACCACAUGAUGAUGCCUGAAGAGCCUUGGUUUUUUG [C64U C88A] here?
A: The value was -0.544.

Q: Which “polymerase ribozyme fitness (log ratio)” value does the source give for GACCAAUCUGCCCUCAGAGCUCGAGAACAUCUUCGGAUGCAGAGGAGGCAUGCUUCGGUGGCGCGAUAGCGCCAACGUCCUGUACCACCAAUGCAUCCCACCACAUGAUGAUGCCUGAAGAGCCUUGGUUUUUUG [G51U C82G A83U U87A] here?
A: Its value is -1.52.

Q: With GACCAAUCUGCCCUCAGAGCUCGAGAACAUCUUCGGAUGCAGAGGAGGCAGGCUUCGGUGGCGCGAUAGCGCCAACGUCCUCCACCUCCAAUGCAUCCCACCACAUGAUGAUGCCUGAAGGGCCUUGGUUUUUUG [A83C A121G] as the variant, how does the “polymerase ribozyme fitness (log ratio)” value read?
A: Its value is 1.63.

Q: For GACCAAUCUGCCCUCAGAGCUCGAGAACAUCUUCGGAUGCAGAGGAGGCAGGCUUCGGUGGCGCGAUAGCGCCAACGUCAUCAGCCUCCAAUGCAUCUCACCACAUGAUGAUGCCUGAAGAGCCUUGGUUUUUUG [C80A A84G C98U], which “polymerase ribozyme fitness (log ratio)” value is on record?
A: Its value is -6.69.

Q: For GACCAAUCUGCCGUCAGAGCUCGAGAACAUCUUCGGAUGCAGAGGAGGCAGGCUUCGGUGGCGCGAUAGCGCCAACGUCCUCAACCUCCUAUGCAUCCCACCACAUGAUGAUGCCUGAAGAGCUUUGGCUUUUUG [C13G A90U C124U U129C], which “polymerase ribozyme fitness (log ratio)” value is on record?
A: The value was -3.28.

Q: Which “polymerase ribozyme fitness (log ratio)” value does the source give for GACCAAUCUGCCCUCAGAGCUCGAGAACAUCUUCGGAUGCAGAGGAGGCAGGCUUCGGUGGCGCGAUAGAGCCAACGACCUCAACCUCCAAUGCAUCCCACCACAUGAUGAUGCUUGAAGAGCCUUGGUUUUUUG [C70A U78A C115U] here?
A: The value was -4.18.

Q: Which “polymerase ribozyme fitness (log ratio)” value does the source give for GACCAAUCUGCCCUCAGAGCUCGAGAACAUCUUCGGAUGCAGAGGAGGCAGGCUUUGGUGGCGCGAUAGCGCAAACGUCCUCAACCUCCAAUGCAUCCCUCCACAUGAUGAUGCCUGAAGAGCCUUGGUUUUUUG [C56U C73A A100U] here?
A: Its value is -1.12.

Q: For GACCAAUCUGCCCUCAGAGCUCGAGAACAUCUUCGGAUGCAGAGUAGGCGGGCUUCGGUGGCGCGAUAGCGCCAACGUCCUCAACCUCCAAUGCAUCCCACCACAUGAUGAUGCCUGAAGAGCCUUGGUUUUUUG [G45U A50G], which “polymerase ribozyme fitness (log ratio)” value is on record?
A: The value was -1.25.

Q: Which “polymerase ribozyme fitness (log ratio)” value does the source give for GACCAUUCUGCUCUCAGAGCUCGAGAACAUCUUCGGAUGCAGAGGAGACAGGCUUAGGUGGCGCUAUAGCGCCAACGUCCUCAACCUCCAAUGCUUGCCAACACAUGAUGAGGUCUGAAGAGCCUUGGUUUUUUG [A6U C12U G48A C56A G65U A95U C97G C101A U112G C114U] here?
A: The value was -7.26.

Q: Which “polymerase ribozyme fitness (log ratio)” value does the source give for GACCAAUCUGAUCUCAGAGCUCGAGAACAUCUUCGGAUGAAGAGGAGGCAGGCUUUGGUGGCGCGAUAGCGCCAACGUCCUCAACCUCAAAUGCAUCCCACCACAUGAUGAUGCCUGAAGAUCCUUGGUUUUUUG [C11A C12U C40A C56U C89A G122U] here?
A: The value was -2.66.

Q: Which “polymerase ribozyme fitness (log ratio)” value does the source give for GACCAAUCUGCCCUCAGAGCUCGAGAACAUCUUCGGAUGCAGACGAGGCAGGCUUCGGUGGCGCGAUAGCGCCAACGUCCUCAACCUCCAAUGCAUCCCACCACAGGAUGAUGCCUGAAGAGCGUUGGUUUUUUA [G44C U106G C124G G135A] here?
A: Its value is -0.579.

Q: For GACCAAUCUUCCCUCAGAGCUCGAGAACAUCUUCGGAUGCAGAGGAGGCAGGGUUCGGUGCCGCGAUAGCGCCAACGUCCUCAUCCUCCAAUGCAUCCCACCACAUGAUGAUGCCUGAAGAGCCUUGGUUUUUUG [G10U C53G G61C A84U], which “polymerase ribozyme fitness (log ratio)” value is on record?
A: The value was -1.21.

Q: Which “polymerase ribozyme fitness (log ratio)” value does the source give for GACCAAUCUGCCCUCAGAGCUCGAGAACAUCUUCGGAUGCAGAGGAGGCAGGAUUCGGUGGCGCGAUAGCGCCAACGUCCUCAACCUCCAAUGCAUCCCACCACAUGAUGAUGCCUGAAGAUACUUGGUUUUUUG [C53A G122U C123A] here?
A: The value was 0.198.

Q: Which “polymerase ribozyme fitness (log ratio)” value does the source give for GACCAAUAUGCCCUCAGUGCUCGAGAACAUCUUCGGAUGCAGAGCAGGCAGGCUUCGGUGGCGCGAUAGCGCCAACGUCCUCAACCUCCAAUGCAUCCCACCACAUGAAGAUGCCUGAAGAGCCUUGGUUUUUUG [C8A A18U G45C U109A] here?
A: Its value is -5.8.

Q: Which “polymerase ribozyme fitness (log ratio)” value does the source give for GAACAAUCUGCCCUCAGAGCUCGAGAACAUCUUCGGAUUCAGAGGAGGCAGGCUUCGGUGGCGCGAUAGCGCCAACGUCCUCAACCUCCAAUGCAUCCCACCACAUGAUGAUGACUGAAGAGCCGUGGUUUUUUG [C3A G39U C114A U125G] here?
A: The value was -3.98.

Q: With GACCAAGCUGCCCUCAGAGCUCGAGAACAUCUUCGGAUGCAGAGGAGGCAGGCUUCGGUGGCGCGAUAGUGCCAACGUCCUCAACCUCCAAUCCAUCCCACCACAUGAUGAUGCCUGAAGAGCCUUGGUUUUUUG [U7G C70U G93C] as the variant, how does the “polymerase ribozyme fitness (log ratio)” value read?
A: Its value is -0.518.

Q: With GACCAAUCUGCCCUUAGAGCUCGAGAACAUCUUCGGAUGCAGAGGAGGCAGGCUUCGGUGGCGUGAUAGCGCCAACAUCCUCAACCUCCAAUCCAUCUCACCACAUGAUGAUGCCUGAAAAGCGUUGGUUUUUUG [C15U C64U G77A G93C C98U G120A C124G] as the variant, how does the “polymerase ribozyme fitness (log ratio)” value read?
A: The value was -1.82.

Q: With GACCAAUCUGCCCUCAGAGCUCGAGAACAUCUUCGGUUGCAGAGGAGGCAGGCAUCGGUGGCGCGAUAGCGCCAACGUCCUCAACCUCCAAUGCAUCCCACCACAUGAUGAUGCCUGAAGAGUGUUGGUUUUUUG [A37U U54A C123U C124G] as the variant, how does the “polymerase ribozyme fitness (log ratio)” value read?
A: The value was 1.44.

Q: For GACCAAUCUGCCCUCAGAGCUCGAGAACAUCUUCGGGUGCAGAGGAGGCAGGCUUCGGUGGCGUGAUAGCGCGAACGUCCUCAACCUCCAAUGCAUCCCACCACAUGAAGAUGCCUGAAGAGCCUUGGUUUUUUG [A37G C64U C73G U109A], which “polymerase ribozyme fitness (log ratio)” value is on record?
A: Its value is -6.41.

Q: For GAACAAUCUGCCCUCAGAGCUCGAGAACAUCUUCGGAUGCAGAGGAGGCAGGCUUCGGUGGCGCGAUAGCGCCAACGCCCUCAACCCCCAAUGCAUCCCACUACAUGAUGAUGCCUGAAGAGCGUUGGUUAUUUG [C3A U78C U87C C102U C124G U131A], which “polymerase ribozyme fitness (log ratio)” value is on record?
A: The value was -0.482.

Q: Which “polymerase ribozyme fitness (log ratio)” value does the source give for GACCAAUCUGCCCUCAGAGCUCGAGGACAUCUUCGUAUGCAGAGGAGGCAGGCUUCGGUGGCGCGAUAGCGCCAACGUCCUGAACCUCCAAUGCAUCCCACCACAUGAUGAUGCCUGAAGAGCCUUGGUUUUUUG [A26G G36U C82G] here?
A: The value was -4.05.
